According to the supplement of paper PMC9170038:

Columns and labels:
[1] = system: MS2 coat protein; experiment: apparent KD of MS2 coat protein, switch OFF state (with FMN for OFF switches, without FMN for ON switches); designed switch direction (-1 OFF switch, 1 ON switch): -1; higher = weaker reporter binding; settings: FMN input: 0 or 200 uM; Eterna round: R93 (includes R88 designs)
Procedure, shortened: (§1)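 Designed RNA switches were transcribed on-chip from Illumina sequencing clusters. They were then titrated with SNAP-549-labelled MS2 coat protein (twofold steps, 0.7 or 1.5 nM to 3 µM; 0.8–1.5 h to 10–20 min per step) in 100 mM Tris-HCl pH 7.5, 80 mM KCl, 4 mM MgCl2, without or with constant ligand. Apparent KD is the per-design median of normalised cluster binding-curve fits.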

[2] = system: MS2 coat protein; experiment: apparent KD of MS2 coat protein, switch ON state; designed switch direction (-1 OFF switch, 1 ON switch): -1; higher = weaker reporter binding; settings: FMN input: 0 or 200 uM; Eterna round: R93 (includes R88 designs)
Procedure, shortened: as §1

Row | Sequence | apparent KD of MS2 coat protein [1] | apparent KD of MS2 coat protein [2]
1 | AAAAAGUGAGGAUAUACAUGAGGAUCACCCAUGUGUAUAAAAAAAUACACAAAAGAAAGUAGAAGGCACUAAAA [Ex 3 Hot] | 58.6 nM | 21.1 nM
2 | AGCUAGUCAGGAUAUACGAACAUGUCAGAAGACGUGAAGGGACAUGAGGAUCACCCAUGUAGAAGGGACUAGCA [74%, Web mod - With 1 more G's] | 102 nM | 31.9 nM
3 | AACUAACAUGAGGAUCACCCAUGUCAGGAUAUGCAAAGAUCGAUCGAACGAUCGAUAAGCAGAAGGGACAAAAA [Amethyst 95] | 36.9 nM | 23.3 nM
4 | AAAAAACAUGAGGAUCACCCAUGUGAGGAUAUGCGAAAUAAAAAUAAAAUAAUAAAAAGCAGAAGGCACAAAAA [Amethyst 64] | 40.6 nM | 30.1 nM
5 | AAGAAGUGAGGAUAUACAUGAGGAUCACCCAUGUUAAGAAGAAUUUUAGAGAAAGAAGGUAGAAGGCACAAGAA [JR_Exclusion3_Sub5] | 35.3 nM | 34.7 nM
6 | AGAAAGUCAGGAUAUACGAAUAAGAAAAAAGACGAGAACGGACAUGAGGAUCACCCAUGUAGAAGGGACAAGAA [Diamond 15] | 40.6 nM | 91.2 nM
7 | UAUAGACAUGAGGAUCACCCAUGUGAGGAUAUCAGUAACUACAAAACAUCACAUACAAUGAGAAGGCACAGAAA [JR_Exc001_Sub014] | 49.8 nM | 40 nM
8 | AAGAACUGAGGAUAUACAUGAGGAUCACCCAUGUAAAAGAAAGAGGGAAAAGAGAAAAGUAGAAGGCAGAAGAA [Berenice II] | 32.4 nM | 24.9 nM
9 | GGUUGGCGAGGAUAUACAUGAGGAUCACCCAUGUGAGAGAAAAAAGUGAGAAAGAAACGUAGAAGGCGCUGACG [salish99-ex3-30] | 824 nM | 88.4 nM
10 | CUCAAGUAAGGAUAUACAAGAAAAGAAGAGAAAGAAAAGAAGUAGAAGGUACAUGAGGAUCACCCAUGUAAGAA [EteRNA is fun!] | 22.2 nM | 26.7 nM
11 | ACAGUUACAGGAUAUACAUGGGAAAAUAAAAAUAAAAAACUACAUGAGGAUCACCCAUGUAGAAGGGUAACUGA [Ex2 Design 198: Random 13] | 26.6 nM | 77.5 nM
12 | UGGGAGUCAGGAUAUACGAACAUGUCGCCAGAUGUCAAGGUACAUGAGGAUCACCCAUGUAGAAGGGAGGAGAA [salish99-Ex2-30(!)] | 56.6 nM | 97.1 nM
13 | AAAAAACAUGAGGAUCACCCAUGUGAGGAUAUGCUAUGGAAAAUAAAAAUAAAACAUAGCAGAAGGCACACCAA [Denovo 16] | 37.4 nM | 31.4 nM
14 | AGAAAACAUGAGGAUCACCCAUGUGAGGAUAUCGAUGUCCAAAAAAAAGUGCGGACCUCGAGAAGGCACAUUGG [Mod of Erbelaed v.3 (favor state 2,lowered kcal by 1)] | 51.1 nM | 49.5 nM
15 | AAAUACCAAGGAUAUACAUGAGGAUCACCCAUGUACAAACCCGUGGAACGGAUCGUUGGUAGAAGGUGGAAAUA [Isleusso] | 12.2 nM | 13.4 nM
16 | CAUAGGCGAGGAUAUACAUGAGGAUCACCCAUGUAAGGAAACCUGGCAGACUCAGAAUGUAGAAGGCGCACUGA [Ex3_Neo] | 32.5 nM | 17.1 nM
17 | AGUUGGCGAGGAUAUACAUGAGGAUCACCCAUGUGAGAGAAAUAAGUGAGAAAGAAAAGUAGAAGGCGCUAACA [JL Lego Mod 18] | 164 nM | 53.5 nM

Row | Sequence | apparent KD of MS2 coat protein [1] | apparent KD of MS2 coat protein [2]
18 | AAAAAACAUGAGGAUCACCCAUGUGAGGAUAUCGGUAGUGAGGCCAUAGUGUCAGUAAUGAGAAGGCACAUAAA [Brourd 613 Mod 10 - Jieux - Exclusion 1] | 22.7 nM | 25.4 nM
19 | AUCAUGUAAGGAUAUGUAAGAAAAGAAAAGAAAGAAAAGAAACAGAAGGUACAUGAGGAUCACCCAUGUAAGAA [EteRNA is fun!] | 34.5 nM | 26.5 nM
20 | AAGAAGAGAGGAUAUACAUGAGGAUCACCCAUGUAAAAGAAAGAAAGGGAAAAGAAAAGUAGAAGGCUCAAGAA [Neferkare-setpenre Ramesses IX] | 45.7 nM | 34.6 nM
21 | AAACAACAUGAGGAUCACCCAUGUCAGGAUAUGAACGAAAAUAAAUAAAAAUAAAAGUUCAGAAGGGACGAAAA [66%, Wbt, 16] | 49.7 nM | 31.6 nM
22 | AAGAAGUGAGGAUAUACAAAAUAAAAGAAAAGAAAGAAAGAACAUGAGGAUCACCCAUGUAGAAGGCACAAGAA [Sekhemkare Amenemhat V] | 17.8 nM | 22 nM
23 | CGGAGGAAAGGAUAUACACAAUAAAAGAAGUGAUCCUUGAGACAUGAGGAUCACCCAUGUAGAAGGUUCACUGA [Zaza] | 15.9 nM | 21.9 nM
24 | AAAAAACAUGAGGAUCACCCAUGUCAGGAUAUGCUAUGGAAAUAAAAAAUAAAACAUAGCAGAAGGGACACCAA [Mat - Exclusion 1 - Eli mod - D48] | 55 nM | 31 nM
25 | AAAACUCGAGGAUAUACGAACAUGUCAAAAGACGUGAAGGGACAUGAGGAUCACCCAUGUAGAAGGCGAGAAAA [Mat - Exclusion 2 - JL-Eli mod - D45] | 123 nM | 55.4 nM
26 | GUGUACAGAGGAUAUACAUAAGCAUGGAAACAUGCAAGAUCACAUGAGGAUCACCCAUGUAGAAGGCUGUACAC [Ex2: 738] | 180 nM | 342 nM
27 | AGCUAGUCAGGAUAUACGAACAUGUCAAAAGACGUGAAAGAACAUGAGGAUCACCCAUGUAGAAGGGACUAGCA [Mat - Exclusion 2 - JL-Eli mod - D48] | 18 nM | 19.4 nM
28 | AAGUACUCAGGAUAUACAUGAGGAUCACCCAUGUGAUAAAAGCGUAAAAAACGCACAUGUAGAAGGGAGUACAA [JL In thr Red Again 2] | 84 nM | 140 nM
29 | CUCUAGUUAGGAUAUCCAAGAAAAGAAAAGAAAGAAAAGAAGGAGAAGGAACAUGAGGAUCACCCAUGUAAGAA [EteRNA is fun!] | 29.4 nM | 27.8 nM
30 | AAAAUACAUGAGGAUCACCCAUGUGAGGAUAUGCGAAUAAAAAUAAAAUAAAAUAAAAGCAGAAGGCACGAAAA [EX 1 May 24] | 32.8 nM | 33.4 nM
31 | CUCUUGUGAGGAUAUCCAAGAAAAGAAAAGAAAGAAAAGAAGGAGAAGGCACAUGAGGAUCACCCAUGUAAGAA [EteRNA is fun!] | 38.9 nM | 38.6 nM
32 | AAAAAACAUGAGGAUCACCCAUGUUAGGAUAUCCUGCAGAAAAAAAAAAAAAACUGCAGGAGAAGGAGCAAGGA [Banishment 3 - Jieux - Exclusion 1] | 44.5 nM | 25.8 nM
33 | GGAAAACAUGAGGAUCACCCAUGUAAGGAUAUGCAAAGGAUAUAGAAGGAAAAAAAAAGCAGAAGGUACAAAGG [salish99-ex1-20] | 53.6 nM | 26.5 nM
34 | UAGAUACAUGAGGAUCACCCAUGUGAGGAUAUCGUUUGUACUAAUCUUUUAGUAUUUUCGAGAAGGCACAUAUA [Ex1Try2_Neo] | 143 nM | 48.5 nM
